{"source": "paper PMC9416547", "about": "(Nucleic Acid Therapeutics, 2022)", "key": {"[1]": {"biological_target": "T1, MBP-tagged NAT10 CTD (541-1025 AA) (UniProt Q9H0A0 541-1025)", "T1 sequence (looked up)": "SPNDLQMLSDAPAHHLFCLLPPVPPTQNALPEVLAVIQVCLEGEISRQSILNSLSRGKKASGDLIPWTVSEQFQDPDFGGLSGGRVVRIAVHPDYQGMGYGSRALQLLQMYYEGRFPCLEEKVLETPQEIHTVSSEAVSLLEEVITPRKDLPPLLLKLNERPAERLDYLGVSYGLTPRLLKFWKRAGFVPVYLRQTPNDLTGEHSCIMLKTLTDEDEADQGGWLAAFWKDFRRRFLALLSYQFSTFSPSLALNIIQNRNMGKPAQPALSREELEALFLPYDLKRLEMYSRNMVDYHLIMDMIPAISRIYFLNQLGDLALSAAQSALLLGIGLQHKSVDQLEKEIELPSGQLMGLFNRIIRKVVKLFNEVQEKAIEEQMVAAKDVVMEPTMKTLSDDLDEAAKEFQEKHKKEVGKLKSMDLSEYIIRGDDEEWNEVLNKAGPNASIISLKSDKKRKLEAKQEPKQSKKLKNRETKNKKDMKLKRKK", "assay": "pull-down"}, "[2]": {"biological_target": "T2, MBP-tagged full-length NAT10 (UniProt Q9H0A0 1-1025)", "T2 sequence (looked up)": "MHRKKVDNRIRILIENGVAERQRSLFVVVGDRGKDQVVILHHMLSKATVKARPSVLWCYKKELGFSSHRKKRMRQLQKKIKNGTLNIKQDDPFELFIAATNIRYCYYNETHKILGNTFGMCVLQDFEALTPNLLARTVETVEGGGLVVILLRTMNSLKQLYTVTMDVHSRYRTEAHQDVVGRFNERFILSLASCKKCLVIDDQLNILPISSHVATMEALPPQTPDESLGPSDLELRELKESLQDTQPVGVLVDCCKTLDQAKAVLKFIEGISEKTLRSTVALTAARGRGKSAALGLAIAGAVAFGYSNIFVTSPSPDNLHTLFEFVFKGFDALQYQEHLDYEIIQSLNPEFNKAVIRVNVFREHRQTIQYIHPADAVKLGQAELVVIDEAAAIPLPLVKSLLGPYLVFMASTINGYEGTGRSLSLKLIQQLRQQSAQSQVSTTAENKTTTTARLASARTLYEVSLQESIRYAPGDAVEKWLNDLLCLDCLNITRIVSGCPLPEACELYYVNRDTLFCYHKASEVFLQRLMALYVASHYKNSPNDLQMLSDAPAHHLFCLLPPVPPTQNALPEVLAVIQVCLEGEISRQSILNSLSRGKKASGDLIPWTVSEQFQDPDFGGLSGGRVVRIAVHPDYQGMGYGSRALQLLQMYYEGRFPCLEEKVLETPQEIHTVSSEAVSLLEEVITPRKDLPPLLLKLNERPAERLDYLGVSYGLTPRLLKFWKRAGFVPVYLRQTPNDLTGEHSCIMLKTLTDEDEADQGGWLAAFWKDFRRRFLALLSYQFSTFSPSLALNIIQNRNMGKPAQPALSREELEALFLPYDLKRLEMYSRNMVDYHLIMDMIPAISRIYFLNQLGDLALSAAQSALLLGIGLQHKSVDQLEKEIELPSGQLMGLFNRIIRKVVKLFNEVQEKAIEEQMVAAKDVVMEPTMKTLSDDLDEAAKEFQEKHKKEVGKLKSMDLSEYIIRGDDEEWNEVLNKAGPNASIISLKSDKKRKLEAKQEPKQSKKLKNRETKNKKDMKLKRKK", "assay": "pull-down"}}}
{"binder": "GST-fused full-length RNase H1 (enzyme, human, UniProt O60930 1-286, looked up) MSWLLFLAHRVALAALPCRRGSRGFGMFYAVRRGRKTGVFLTWNECRAQVDRFPAARFKKFATEDEAWAFVRKSASPEVSEGHENQHGQESEAKASKRLREPLDGDGHESAEPYAKHMKPSVEPAPPVSRDTFSYMGDFVVVYTDGCCSSNGRRRPRAGIGVYWGPGHPLNVGIRLPGRQTNQRAEIHAACKAIEQAKTQNINKLVLYTDSMFTINGITNWVQGWKKNGWKTSAGKEVINKEDFVALERLTQGMDIQWMHVPGHSGFIGNEEADRLAREGAKQSED", "values": [{"measurement": "binding result", "setting": "[1]", "value": "binds"}, {"measurement": "binding result", "setting": "[2]", "value": "binds"}]}
